Ratio to parent data for two variants are collected here from article PMC9301129.

The labels stand for the following.
B1: UNC93B1-GFP, wild type [modified: N-glycosylated at N251 and N272; N-glycosylated at N251 and N272] [not stated] / TLR9-myc (in UNC93B1 KO iBMDMs) [not stated] (parent)
chain 1: MEVEPPLYPVAGAAGPQGDEDRHGVPDGPEAPLDELVGAYPNYNEEEEERRYYRRKRLGVVKNVLAASTGVTLTYGVYLGLLQMQLILHYDETYREVKYGNMGLPDIDSKMLMGINVTPIAALLYTPVLIRFFGTKWMMFLAVGIYALFVSTNYWERYYTLVPSAVALGMAIVPLWASMGNYITRMSQKYYEYSHYKEQDEQGPQQRPPRGSHAPYLLVFQAIFYSFFHLSFACAQLPMIYFLNNYLYDLNHTLINVQSCGTKSQGILNGFNKTVLRTLPRSKNLIVVESVLMAVAFLAMLMVLGLCGAAYRPTEEIDLRSVGWGNIFQLPFKHVRDFRLRHLVPFFIYSGFEVLFACTGFALGYGVCSMGLERLAYLLIAYSLGASASSVLGLLGLWLPRSVPLVAGAGLHLLLTLSLFFWAPAPRVLQHSWIFYFVAALWGVGSALNKTGLSTLLGILYEDKERQDFIFTIYHWWQAVAIFVVYLGSSLPMKAKLAVLLVTLVAAAASYLWMEQKLQQGLVPRQPRIPKPQHKVRGYRYLEEDNSDESDMEGEQGQGDCAEDEAPQAGPLGAEPAGPCRKPCPYEQALGGDGPEEQ
chain 2: LGTLPAFLPCELKPHGLVDCNWLFLKSVPRFSAAASCSNITRLSLISNRIHHLHNSDFVHLSNLRQLNLKWNCPPTGLSPLHFSCHMTIEPRTFLAMRTLEELNLSYNGITTVPRLPSSLVNLSLSHTNILVLDANSLAGLYSLRVLFMDGNCYYKNPCTGAVKVTPGALLGLSNLTHLSLKYNNLTKVPRQLPPSLEYLLVSYNLIVKLGPEDLANLTSLRVLDVGGNCRRCDHAPNPCIECGQKSLHLHPETFHHLSHLEGLVLKDSSLHTLNSSWFQGLVNLSVLDLSENFLYESITHTNAFQNLTRLRKLNLSFNYRKKVSFARLHLASSFKNLVSLQELNMNGIFFRLLNKYTLRWLADLPKLHTLHLQMNFINQAQLSIFGTFRALRFVDLSDNRISGPSTLSEATPEEADDAEQEELLSADPHPAPLSTPASKNFMDRCKNFKFTMDLSRNNLVTIKPEMFVNLSRLQCLSLSHNSIAQAVNGSQFLPLTNLQVLDLSHNKLDLYHWKSFSELPQLQALDLSYNSQPFSMKGIGHNFSFVTHLSMLQSLSLAHNDIHTRVSSHLNSNSVRFLDFSGNGMGRMWDEGGLYLHFFQGLSGLLKLDLSQNNLHILRPQNLDNLPKSLKLLSLRDNYLSFFNWTSLSFLPNLEVLDLAGNQLKALTNGTLPNGTLLQKLDVSSNSIVSVVPAFFALAVELKEVNLSHNILKTVDRSWFGPIVMNLTVLDVRSNPLHCACGAAFVDLLLEVQTKVPGLANGVKCGSPGQLQGRSIFAQDLRLCLDEVLSWDCFGLSLLAVAVGMVVPILHHLCGWDVWYCFHLCLAWLPLLARSRRSAQTLPYDAFVVFDKAQSAVADWVYNELRVRLEERRGRRALRLCLEDRDWLPGQTLFENLWASIYGSRKTLFVLAHTDRVSGLLRTSFLLAQQRLLEDRKDVVVLVILRPDAHRSRYVRLRQRLCRQSVLFWPQQPNGQGGFWAQLSTALTRDNRHFYNQNFCRGPTAE

Variants of B1 are the subject of the assay. The assay can be described thus: co-immunoprecipitation from isolated phagosomes, band densitometry. Particulars: with TLR9-myc (in UNC93B1 KO iBMDMs), means ± SD of two independent experiments, parent: 1, read off a plot.
With chain 1 MEVEPPLYPVAGAAGPQGDEDRHGVPDGPEAPLDELVGAYPNYNEEEEERRYYRRKRLGVVKNVLAASTGVTLTYGVYLGLLQMQLILHYDETYREVKYGNMGLPDIDSKMLMGINVTPIAALLYTPVLIRFFGTKWMMFLAVGIYALFVSTNYWERYYTLVPSAVALGMAIVPLWASMGNYITRMSQKYYEYSHYKEQDEQGPQQRPPRGSHAPYLLVFQAIFYSFFHLSFACAQLPMIYFLNNYLYDLNHTLINVQSCGTKSQGILNGFQKTVLRTLPRSKNLIVVESVLMAVAFLAMLMVLGLCGAAYRPTEEIDLRSVGWGNIFQLPFKHVRDFRLRHLVPFFIYSGFEVLFACTGFALGYGVCSMGLERLAYLLIAYSLGASASSVLGLLGLWLPRSVPLVAGAGLHLLLTLSLFFWAPAPRVLQHSWIFYFVAALWGVGSALNKTGLSTLLGILYEDKERQDFIFTIYHWWQAVAIFVVYLGSSLPMKAKLAVLLVTLVAAAASYLWMEQKLQQGLVPRQPRIPKPQHKVRGYRYLEEDNSDESDMEGEQGQGDCAEDEAPQAGPLGAEPAGPCRKPCPYEQALGGDGPEEQ [chain 1 N272Q], the ratio to parent is 1.1 A.U. Regarding chain 1 MEVEPPLYPVAGAAGPQGDEDRHGVPDGPEAPLDELVGAYPNYNEEEEERRYYRRKRLGVVKNVLAASTGVTLTYGVYLGLLQMQLILHYDETYREVKYGNMGLPDIDSKMLMGINVTPIAALLYTPVLIRFFGTKWMMFLAVGIYALFVSTNYWERYYTLVPSAVALGMAIVPLWASMGNYITRMSQKYYEYSHYKEQDEQGPQQRPPRGSHAPYLLVFQAIFYSFFHLSFACAQLPMIYFLNNYLYDLQHTLINVQSCGTKSQGILNGFNKTVLRTLPRSKNLIVVESVLMAVAFLAMLMVLGLCGAAYRPTEEIDLRSVGWGNIFQLPFKHVRDFRLRHLVPFFIYSGFEVLFACTGFALGYGVCSMGLERLAYLLIAYSLGASASSVLGLLGLWLPRSVPLVAGAGLHLLLTLSLFFWAPAPRVLQHSWIFYFVAALWGVGSALNKTGLSTLLGILYEDKERQDFIFTIYHWWQAVAIFVVYLGSSLPMKAKLAVLLVTLVAAAASYLWMEQKLQQGLVPRQPRIPKPQHKVRGYRYLEEDNSDESDMEGEQGQGDCAEDEAPQAGPLGAEPAGPCRKPCPYEQALGGDGPEEQ [chain 1 N251Q], the ratio to parent was determined as 1.3 A.U.
